Laboratory results from patent US20220409620A1, “REDUCING IMMUNOGENICITY TO PEGLOTICASE” (Horizon Pharma Rheumatology LLC, priority 2016, published 2022).

What was measured:
[1] = system: patients with refractory chronic gout; assay: Prior Phase 3 / pre-marketing pegloticase monotherapy trials (C0405 and C0406): response, infusion reactions, antibodies, PK; type: in vivo, human
Procedure: Improvements were more rapid in patients who received pegloticase 8 mg every 2 weeks compared to every 4 weeks and met the outcomes data of complete resolution of at least 1 tophus with no new or progressive tophi as assessed by blinded assessment of digital photographs of target tophi.
During the second 3 months of treatment, a lower proportion of pegloticase-treated patients experienced flares than patients receiving placebo. The incidence of flares during this period was lowest in the group receiving pegloticase 8 mg every 2 weeks than in the group who received pegloticase 8 mg every 4 weeks, as was the incidence of infusion-related reactions (26% with biweekly dosing vs. 40% with the every-4-week dosing regimen). Both infusion reactions (IRs) and gout flares were least common in patients with sustained urate-lowering responses to treatment and those who received bi-weekly treatment. In most pegloticase-treated patients with IRs, a loss of response to pegloticase (return to SUA >6 mg/dL) preceded the time of the first IR ( 20/21; 95%).
A relationship between the loss of urate-lowering efficacy, incidence of IRs, and high-titer antibody formation was identified in a post-hoc analysis of the pooled data from the Phase 3 studies. […] In one study, 69 (41%) of 169 patients receiving pegloticase developed high titer anti-pegloticase antibodies and subsequently lost response to the drug. In a second study, only 1 of 52 participants with high antibody titers maintained a response to pegloticase (serum urate <6 mg/dL). In addition, 60% participants with high titers developed IR. Anti-pegloticase antibodies were largely directed to the polyethylene glycol (PEG) portion of the molecule and altered the pharmacokinetic clearance of pegloticase, resulting in inhibition of SUA lowering activity. […] In addition, 31 of 52 (60%) patients with titers exceeding 1:2430 developed IRs. […] By preventing the formation of anti-pegloticase antibodies, a tolerizing dose regimen should prevent loss of response to the drug and decrease the incidence of IRs associated with it.
An AE that was not an unexpected AE was an infusion reaction and rarely anaphylaxis. Safety assessments in this study include an evaluation of the frequency and severity of IRs and anaphylaxis. During pre-marketing controlled clinical trials, infusion reactions were reported in 26% of patients treated with pegloticase 8 mg every 2 weeks. During pre-marketing controlled clinical trials, anaphylaxis was reported with a frequency of 6.5% of patients treated with pegloticase. For the purposes of this study, these events shall be defined as follows: […]
Methods: In the MIRROR OL trial, MTX (15 mg/week) was given orally 4 weeks prior to the first pegloticase dose and continued weekly, in combination with pegloticase 8 mg given intravenously every 2 weeks, for a treatment duration of up to 52 weeks. Pre-infusion samples were collected to measure MTX-PGs 1 to 5 in red blood cells at day 1, week 4, 8, 22, 24 and 36. […] Pegloticase concentrations in serum was measured using a validated enzymatic/fluorescence assay. The limit of quantification is 0.6 μg/mL. Anti-pegloticase/PEG IgG antibodies (ADA) were measured using a validated enzyme linked immunosorbent assay (ELISA). The analysis of MTX Polyglutamates was conducted by Exagen. The impact of MTX on pegloticase PK was evaluated by two methods: (1) Comparing pegloticase exposures (median Cmax and Cmin across visits) with MTX from the MIRROR OL trial to the observed levels in historical monotherapy Phase 3 studies (C0405 and C0406) (Lipsky et al., Arthritis Res Ther 16(2), 2014; Sundy et al., JAMA 306(7), 2011). Overlaying observed pegloticase concentrations with MTX against the 90% prediction band of pegloticase concentrations following monotherapy based on the population PK model from the Phase 3 data (Yue et al., ASCPT. Atlanta, 2010).

[2] = system: subjects with refractory gout; settings: after doses of 4 to 12 mg; from 11.1±0.6 mg/dL; cited from earlier work

pegloticase
Cmax, Median (Q1, Q3) ([1]; BQL: below 0.6 μg/mL): 1.51 (BQL, 2.48) μg/mL
Cmin, Median (Q1, Q3) ([1]; BQL: below 0.6 μg/mL): BQL (BQL, BQL)
Cmax BQL, % ([1]; Quantitation Limit 0.6 μg/mL): 29%
Cmax BQL, n/N ([1]; Quantitation Limit 0.6 μg/mL): 25/85
Cmin BQL, % ([1]; Quantitation Limit 0.6 μg/mL): 77%
Cmin BQL, n/N ([1]; Quantitation Limit 0.6 μg/mL): 63/82
plasma urate concentration (pUAc) after dosing, mean±SD [2]: 1.0±0.5 mg/dL
